Source: the supplement of paper PMC9170038

Tested on: K4 kissing-loop RNA reporter
Test: apparent KD of K4 kissing-loop reporter; higher = weaker reporter binding
Conditions: Eterna round: R107
Method: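 RNA-MaP round R107: designed RNA switches with theophylline, tryptophan, arginine or FMN aptamers are transcribed on-chip within common flanks. They are titrated with a labelled K4 kissing-loop RNA reporter in RNA-MaP buffer (100 mM Tris pH 7.5, 80 mM KCl, 4 mM MgCl2), without ligand or with the indicated ligand. Median apparent KD per design.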

[1] = input ligand: theophylline 20 uM
[2] = input ligand: tryptophan 2.4 mM
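Also: bound reporter read as fluorescence of individual clusters on recovered sequencing chips by microscopy, with normalized cluster intensities fitted with a binding model.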

Sequence	apparent KD of K4 kissing-loop reporter (input ligand: FMN 200 uM) [nM]	apparent KD of K4 kissing-loop reporter (input ligand: arginine 13.2 mM) [nM]	apparent KD of K4 kissing-loop reporter (input ligand: none) [nM]	apparent KD of K4 kissing-loop reporter [1] [nM]	apparent KD of K4 kissing-loop reporter [2] [nM]
UUAGUCUAGAGAAGGAGCGAGUGAUGUUUGCUAAGAUCUAUGAUAUCAUAGAUCAAAUUUACUCAGGUAGGUCGCUCUAGACAUU [AK4 Exc Arginine B]	294	53.1	182	165	137
AUAAUUAUGACGGCCGCCACUGAGAGUAGUGAUGUUACUCUUUUCCUUUAGUAAUAAUUUUUUAUCAGGACCGGGUUAUUUGAAU [JR_Nu_ExcTryptoB_Sub027]	68.7	67.2	70.2	64.4	83.9
GGGUGGCAGGCGGCCGCCACUCUGAGCAGCCAGUGAGUGAUGUUCGUGGCGGAAGAAUGUUCGUAGAGGACCGGGUUUGUUGUUC [Same State Tryptophan B GF 22]	472	245	297	432	337
GGUGACAGCCAGGAGUGAUGUAUAGAAUAGCGAGGACCGGUACGGCCGCCACUCGUGAAGAGAAAGGAGUGAUGUUCCGUAAUGG [Kazoo C2]	224	178	193	308	57
UUCUUGAUGGAAACAUCGAGGAUUACUGAUACCAGUAUCGAUAGAUACCCUUGGCAGCAGAAUCAGUAAUCACGAGUGAUGUUCG [Ex Theophylline A K4 6]	662	497	841	583	460
CUAUAUAGUGAUGUUAUAUAGAUAACAGAUACCAGCUAGAAAACUAGCCCUUGGCAGCUGAUAAGGGAAAGUAUAAUUGUGUAAA [AstroSTH-A#DifdesignED20.18]	82.1	73	76	64.8	73.7
GGAUCCACCAGUGAUGUUGGAGAAAACUCCAAGGAUAUGACGAAAGUCAGAAGGUGGUAGACUGGGCAAAGUCCGGUCGGAUCCA [FmnA10 G66]	3150	68.5	144	49.9	355
ACGCUAGCUACCGAAAGGUAGCUAGCGAGUGAGGAUAUGUGGAAACACAGAAGGCACAGCACAGUGAUGUUGUGCGGCGAAAGCC	587	249	932	522	729
AGUCCACUCUAAAGAGUGGACCUAAGGGAUACCAGUGAUGUUGGUCACCCUUGGCAGCCCUCUGUCAUCGAUAAAGAUGGCAGAA	142	110	114	112	108
GACUCAUGUAGAAGGAGCGUCAGAAGCUACAGACAUGAGUGAUGUUCAUGUUAGUUGAUUUGACAGGUAGGUCGCUACAGCAGGA [KL-SSArg B15 #analogue]	280	207	247	283	229
GCGCGUCAUGUCAGCGGUGACUUUGUCGAUACCAGCGCCGCAAGGCGCCCUUGGCAGCGACGCGCUGGAGUGAUGUUCCAGCGUG [#2 Exclusion - Theophylline A Attempt #12 (HarryS)]	135	126	134	154	126
AAUUUAUUAACUGAUACCAGACUAAUUUUAUUUAUUAAGUCAAGUGAUGUUUGACUUUAUGUCCCUUGGCAGCAGAAUUAAUUAA [JR_SSTheophyB_Sub019]	126	143	124	112	128
UGUUAUGUAUCAGGAUAUUAGUGAUGUUUGUUUAUGUUAGUGAUGUUGAUAUUUGUUUUAUGUAUUUAAGAAGGGAUUGAGAAGU [ffcfxmullin]	62.1	21.4	45.6	30.2	49.3
UGCACGGGCUCGGCCGCCACUCCCGCGGGUCGAAAGGUCCGCUACUGAGUGAUGUUCGGUUGGAGGAGGACCGGGAGCCCGUGCA [#2 Exclusion - Tryptophan B Attempt #24 (HarryS)]	95.6	92.9	108	69.7	69.2
UACACGACUCGUGUAAACCGAGGUAACAGGCAGGAUAUGUAACGGAACAGAAGGGCCAUGUUGCGUGUCCAGUGAUGUUGGAUGC [Vetedile]	170	231	270	272	246
UGGCGAGUGAUGUUCGUUGUUGUAGUGUGCCGAGGACCGGUACGGCCGCCACUCGGGUUGGUUGUUGUUGUUGUUGUUGUUGUUG [whbob_SS_tryp_A]	127	110	112	119	76.1
